# Measurements taken from paper PMC8501884.
# Experiments:
# [1] = target: dimerization domain of ZEN-4 (residues 530 to 601) (C. elegans); experiment: crystal structure
# [2] = target: NTD and CC region of CYK-4 (residues 1 to 120) (C. elegans); experiment: crystal structure
Substance,stoichiometry N [1],stoichiometry N [2]
dimerization domain of ZEN-4 (residues 530 to 601) (domain or fragment),2,
NTD and CC region of CYK-4 (residues 1 to 120) (domain or fragment),,2
